In patent US20040127421:

Target: T1, 19-mer (SEQ ID NO:11) PRCGNPDVANYNFFPRKPK
T1 chain: PRCGNPDVANYNFFPRKPK

B1: Proenzyme pro-MMP-9 (protein)
chain: APRQRQSTLVLFPGDLRTNLTDRQLAEEYLYRYGYTRVAEMRGESKSLGPALLLLQKQLSLPETGELDSATLKAMRTPRCGVPDLGRFQTFEGDLKWHHHNITYWIQNYSEDLPRAVIDDAFARAFALWSAVTPLTFTRVYSRDADIVIQFGVAEHGDGYPFDGKDGLLAHAFPPGPGIQGDAHFDDDELWSLGKGVVVPTRFGNADGAACHFPFIFEGRSYSACTTDGRSDGLPWCSTTANYDTDDRFGFCPSERLYTQDGNADGKPCQFPFIFQGQSYSACTTDGRSDGYRWCATTANYDRDKLFGFCPTRADSTVMGGNSAGELCVFPFTFLGKEYSTCTSEGRGDGRLWCATTSNFDSDKKWGFCPDQGYSLFLVAAHEFGHALGLDHSSVPEALMYPMYRFTEGPPLHKDDVNGIRHLYGPRPEPEPRPPTTTTPQPTAPPTVCPTGPPTVHPSERPTAGPTGPPSAGPTGPPTAGPSTATTVPLSPVDDACNVNIFDAIAEIGNQLYLFKDGKYWRFSEGRGSRPQGPFLIADKWPALPRKLDSVFEERLSKKLFFFSGRQVWVYTGASVLGPRRLDKLGLGADVAQVTGALRSGRGKMLLFSGRRLWRFDVKAQMVDPRSASEVDRMFPGVPLDTHDVFQYREKAYFCQDRFYWRVSSRSELNQVDQVGYVTYDILQCPED
  conversion of pro-MMP-9 into prodomain and active enzyme by stromilysin (HPLC peak areas): Titrating the standard splicing reaction with the 19-mer prevents the conversion of pro-MMP-9 into the prodomain and the active enzyme. Splicing can be inhibited in a dose dependent manner with micromolar 19-mer.
